Test results reported in patent US20200282021A1 (GENEXINE, published 2020).

Key:
[1] = target: T1, human GLP-1 receptor (Abcam) (human, UniProt P43220 24-145, limits assumed); test: SPR (Proteon XPR36), human GLP-1 receptor immobilised
T1 construct: Bought recombinant protein
Procedure: (§1) Binding affinity of each TAs were evaluated by SPR (Proteon XPR36, BIO-RAD) and based on the protocol modified from general procedure of SPR analysis in published paper. Specifically, the proteon GLC chip (BIO-RAD, USA) was stabilized with PBST (PBS+0.01% tween 20, pH 7.4). Stabilized GLC chip was activated with 150 uL of Sulfo-NHS (0.001 M) and EDC (0.04M) (1:1) followed by immobilization of 10 ug/mL human GLP-1 receptor (Abcam, UK) diluted in acetate buffer (pH 5.0). After immobilization level was recorded and deactivation by 1 M Ethanolamine-HCl (pH 8.5), different concentrations of Dulaglutide and GLP-1-gFc (0, 1.25, 2.5, 5, 10 uM) were injected to each channel of chip. Chip was regenerated by 25 mM NaOH and checked ‘Zero base’ before repeated analysis of same molecule or other TA. All binding sesorgrams were collected, processed, and analyzed using the integrated Proteon Manager software (Bio-RAD, USA). Binding curves were fitted using the Laugmuir model.

[2] = target: T1, human GLP-1 receptor (Abcam); test: SPR (Proteon XPR36), human GLP-1 receptor immobilised, analyte 0-10 uM, Langmuir fit
Procedure: as §1

[3] = target: GLP-1 receptor expressed on the transgenic cell line GLP1R_cAMP/luc; test: cell-based or functional assay

fold koff against Dulaglutide [1]: ~10 fold | fold kon against Dulaglutide [1]: 1.7 fold | Kd [2]: 16 µM | EC50, cAMP-dependent luciferase reporter in GLP-1R over-expressing cells [3]: 23.3 pM | fold difference of EC50 against Dulaglutide, cAMP-dependent luciferase reporter [3]: 3.5 fold
B1: GLP-1(A2G)-hyFc9 (Fc fusion)
chain: HGEGTFTSDVSSYLEGQAAKEFIAWLVKGRGAKATTAPATTRNTGRGGEEKKKEKEKEEQEERETKTPECPSHTQPLGVFLFPPKPKDTLMISRTPEVTCVVVDVSQEDPEVQFNWYVDGVEVHNAKTKPREEQFNSTYRVVSVLTVLHQDWLNGKEYKCKVSNKGLPSSIEKTISKAKGQPREPQVYTLPPSQEEMTKNQVSLTCLVKGFYPSDIAVEWESNGQPENNYKTTPPVLDSDGSFFLYSRLTVDKSRWQEGNVFSCSVMHEALHNHYTQKSLSLSLGK
modifications: O-glycosylation at the IgD hinge region (positions not stated)
notes: also called GLP-1-gFc; GLP-1-hyFc9
